Data set [1] has as its target T1, Methanothermobacter thermautotrophicus glutamyl-tRNA(Gln) amidotransferase GatDE, His6-tagged (Methanothermobacter thermautotrophicus), O26802.
T1 chain 1: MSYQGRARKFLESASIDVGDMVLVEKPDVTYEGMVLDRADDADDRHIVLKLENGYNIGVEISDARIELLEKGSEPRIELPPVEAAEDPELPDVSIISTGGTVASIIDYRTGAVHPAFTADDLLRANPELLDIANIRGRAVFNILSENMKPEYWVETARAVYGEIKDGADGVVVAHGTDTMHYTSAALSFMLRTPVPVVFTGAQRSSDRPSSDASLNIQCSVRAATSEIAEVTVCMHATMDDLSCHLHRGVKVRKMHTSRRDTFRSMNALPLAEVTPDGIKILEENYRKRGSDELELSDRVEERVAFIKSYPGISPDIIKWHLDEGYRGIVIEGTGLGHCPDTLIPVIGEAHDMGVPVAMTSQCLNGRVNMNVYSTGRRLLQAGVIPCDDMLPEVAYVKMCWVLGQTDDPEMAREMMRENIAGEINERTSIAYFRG
T1 chain 2: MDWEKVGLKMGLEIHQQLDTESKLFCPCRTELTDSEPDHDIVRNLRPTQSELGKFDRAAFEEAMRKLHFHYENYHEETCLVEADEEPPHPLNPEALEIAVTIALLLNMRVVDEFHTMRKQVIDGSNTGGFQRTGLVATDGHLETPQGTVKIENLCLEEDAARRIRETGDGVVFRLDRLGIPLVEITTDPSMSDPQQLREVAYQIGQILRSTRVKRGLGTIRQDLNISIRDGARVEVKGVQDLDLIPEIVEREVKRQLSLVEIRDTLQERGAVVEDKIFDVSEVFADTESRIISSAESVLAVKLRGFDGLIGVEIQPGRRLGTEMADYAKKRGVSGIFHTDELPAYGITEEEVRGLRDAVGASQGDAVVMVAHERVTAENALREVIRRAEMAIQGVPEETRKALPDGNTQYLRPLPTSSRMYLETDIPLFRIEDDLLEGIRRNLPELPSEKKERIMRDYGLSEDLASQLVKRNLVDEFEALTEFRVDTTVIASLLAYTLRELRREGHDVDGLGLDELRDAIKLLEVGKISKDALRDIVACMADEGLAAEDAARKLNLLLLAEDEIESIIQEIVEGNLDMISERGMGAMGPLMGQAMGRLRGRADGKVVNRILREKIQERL
The data set is described as follows: SEC. The settings on record: remark: other sources report otherwise.

Data set [2] deals with T2, Alexa fluor 488-labeled M. thermautotrophicus ND-GluRS (Methanothermobacter thermautotrophicus), O26157.
T2 chain: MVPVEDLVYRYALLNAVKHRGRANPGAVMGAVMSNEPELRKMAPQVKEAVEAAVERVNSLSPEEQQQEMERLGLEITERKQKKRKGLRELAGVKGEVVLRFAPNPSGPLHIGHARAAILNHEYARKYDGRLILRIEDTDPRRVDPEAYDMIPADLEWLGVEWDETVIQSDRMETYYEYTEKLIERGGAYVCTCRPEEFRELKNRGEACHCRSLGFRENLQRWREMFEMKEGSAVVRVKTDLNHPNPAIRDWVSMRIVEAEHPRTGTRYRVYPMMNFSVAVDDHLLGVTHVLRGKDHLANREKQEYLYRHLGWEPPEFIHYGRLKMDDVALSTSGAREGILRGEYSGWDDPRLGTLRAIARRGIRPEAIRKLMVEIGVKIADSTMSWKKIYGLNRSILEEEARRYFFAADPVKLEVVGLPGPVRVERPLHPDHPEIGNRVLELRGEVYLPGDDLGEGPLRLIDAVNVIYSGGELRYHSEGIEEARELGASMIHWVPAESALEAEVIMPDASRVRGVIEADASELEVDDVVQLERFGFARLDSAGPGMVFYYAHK
Kind of data set: fluorescence polarisation. The settings on record: remark: other sources report otherwise. For orientation: Polarisation of emitted light reports the rotation of a fluorescent probe.

Data set [3] concerns the target T3, Methanothermobacter thermautotrophicus non-discriminating glutamyl-tRNA synthetase (Methanothermobacter thermautotrophicus), O26157.
T3 chain: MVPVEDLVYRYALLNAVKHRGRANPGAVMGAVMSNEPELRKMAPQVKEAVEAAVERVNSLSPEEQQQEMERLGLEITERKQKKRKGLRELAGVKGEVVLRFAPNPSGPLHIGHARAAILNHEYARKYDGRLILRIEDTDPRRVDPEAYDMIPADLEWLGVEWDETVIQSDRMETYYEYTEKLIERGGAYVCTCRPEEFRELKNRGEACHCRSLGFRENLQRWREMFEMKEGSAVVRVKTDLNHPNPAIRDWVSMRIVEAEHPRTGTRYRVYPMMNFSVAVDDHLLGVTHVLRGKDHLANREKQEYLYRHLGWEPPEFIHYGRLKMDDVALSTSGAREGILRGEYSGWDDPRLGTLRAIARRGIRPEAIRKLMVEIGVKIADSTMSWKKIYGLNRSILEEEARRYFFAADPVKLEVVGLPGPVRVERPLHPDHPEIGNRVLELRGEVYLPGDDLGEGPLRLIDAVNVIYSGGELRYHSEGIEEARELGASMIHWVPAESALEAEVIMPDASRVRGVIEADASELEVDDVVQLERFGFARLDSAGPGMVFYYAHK
The data set is described as follows: nitrocellulose filter-binding competition. The settings on record: remark: other sources report otherwise.

Data set [4] concerns the molecule itself. Kind of data set: SEC.

As usually defined, the Kd is the constant that tells how readily two partners part at equilibrium. Lower therefore signals tighter binding. The term Ki denotes the dissociation constant of the complex between target and ligand, obtained from inhibition or displacement. Read a high Ki as a looser hold on the target. For orientation: stoichiometry N means a count of units in the complex or per binding partner.

B1: Methanothermobacter thermautotrophicus non-discriminating glutamyl-tRNA synthetase, O26157 1-553 (enzyme)
chain: MVPVEDLVYRYALLNAVKHRGRANPGAVMGAVMSNEPELRKMAPQVKEAVEAAVERVNSLSPEEQQQEMERLGLEITERKQKKRKGLRELAGVKGEVVLRFAPNPSGPLHIGHARAAILNHEYARKYDGRLILRIEDTDPRRVDPEAYDMIPADLEWLGVEWDETVIQSDRMETYYEYTEKLIERGGAYVCTCRPEEFRELKNRGEACHCRSLGFRENLQRWREMFEMKEGSAVVRVKTDLNHPNPAIRDWVSMRIVEAEHPRTGTRYRVYPMMNFSVAVDDHLLGVTHVLRGKDHLANREKQEYLYRHLGWEPPEFIHYGRLKMDDVALSTSGAREGILRGEYSGWDDPRLGTLRAIARRGIRPEAIRKLMVEIGVKIADSTMSWKKIYGLNRSILEEEARRYFFAADPVKLEVVGLPGPVRVERPLHPDHPEIGNRVLELRGEVYLPGDDLGEGPLRLIDAVNVIYSGGELRYHSEGIEEARELGASMIHWVPAESALEAEVIMPDASRVRGVIEADASELEVDDVVQLERFGFARLDSAGPGMVFYYAHK
Regarding B1, the stoichiometry N (ND-GluRS monomers per GatDE homodimer) in data set [1] turned out to be 2.

B2: Methanothermobacter thermautotrophicus glutamyl-tRNA(Gln) amidotransferase GatDE, His6-tagged, O26802 1-435; O26803 1-619 (complex)
chain 1: MSYQGRARKFLESASIDVGDMVLVEKPDVTYEGMVLDRADDADDRHIVLKLENGYNIGVEISDARIELLEKGSEPRIELPPVEAAEDPELPDVSIISTGGTVASIIDYRTGAVHPAFTADDLLRANPELLDIANIRGRAVFNILSENMKPEYWVETARAVYGEIKDGADGVVVAHGTDTMHYTSAALSFMLRTPVPVVFTGAQRSSDRPSSDASLNIQCSVRAATSEIAEVTVCMHATMDDLSCHLHRGVKVRKMHTSRRDTFRSMNALPLAEVTPDGIKILEENYRKRGSDELELSDRVEERVAFIKSYPGISPDIIKWHLDEGYRGIVIEGTGLGHCPDTLIPVIGEAHDMGVPVAMTSQCLNGRVNMNVYSTGRRLLQAGVIPCDDMLPEVAYVKMCWVLGQTDDPEMAREMMRENIAGEINERTSIAYFRG
chain 2: MDWEKVGLKMGLEIHQQLDTESKLFCPCRTELTDSEPDHDIVRNLRPTQSELGKFDRAAFEEAMRKLHFHYENYHEETCLVEADEEPPHPLNPEALEIAVTIALLLNMRVVDEFHTMRKQVIDGSNTGGFQRTGLVATDGHLETPQGTVKIENLCLEEDAARRIRETGDGVVFRLDRLGIPLVEITTDPSMSDPQQLREVAYQIGQILRSTRVKRGLGTIRQDLNISIRDGARVEVKGVQDLDLIPEIVEREVKRQLSLVEIRDTLQERGAVVEDKIFDVSEVFADTESRIISSAESVLAVKLRGFDGLIGVEIQPGRRLGTEMADYAKKRGVSGIFHTDELPAYGITEEEVRGLRDAVGASQGDAVVMVAHERVTAENALREVIRRAEMAIQGVPEETRKALPDGNTQYLRPLPTSSRMYLETDIPLFRIEDDLLEGIRRNLPELPSEKKERIMRDYGLSEDLASQLVKRNLVDEFEALTEFRVDTTVIASLLAYTLRELRREGHDVDGLGLDELRDAIKLLEVGKISKDALRDIVACMADEGLAAEDAARKLNLLLLAEDEIESIIQEIVEGNLDMISERGMGAMGPLMGQAMGRLRGRADGKVVNRILREKIQERL
modifications: here or on the partner: Alexa fluor 488 label (residues not stated)
In data set [2], B2 showed a Kd of 100 nM. In data set [3], this molecule gave a Ki of 33 nM.

B3: Methanothermobacter thermautotrophicus glutamyl-tRNA(Gln) amidotransferase GatDE, His6-tagged (complex)
chain 1: MSYQGRARKFLESASIDVGDMVLVEKPDVTYEGMVLDRADDADDRHIVLKLENGYNIGVEISDARIELLEKGSEPRIELPPVEAAEDPELPDVSIISTGGTVASIIDYRTGAVHPAFTADDLLRANPELLDIANIRGRAVFNILSENMKPEYWVETARAVYGEIKDGADGVVVAHGTDTMHYTSAALSFMLRTPVPVVFTGAQRSSDRPSSDASLNIQCSVRAATSEIAEVTVCMHATMDDLSCHLHRGVKVRKMHTSRRDTFRSMNALPLAEVTPDGIKILEENYRKRGSDELELSDRVEERVAFIKSYPGISPDIIKWHLDEGYRGIVIEGTGLGHCPDTLIPVIGEAHDMGVPVAMTSQCLNGRVNMNVYSTGRRLLQAGVIPCDDMLPEVAYVKMCWVLGQTDDPEMAREMMRENIAGEINERTSIAYFRG
chain 2: MDWEKVGLKMGLEIHQQLDTESKLFCPCRTELTDSEPDHDIVRNLRPTQSELGKFDRAAFEEAMRKLHFHYENYHEETCLVEADEEPPHPLNPEALEIAVTIALLLNMRVVDEFHTMRKQVIDGSNTGGFQRTGLVATDGHLETPQGTVKIENLCLEEDAARRIRETGDGVVFRLDRLGIPLVEITTDPSMSDPQQLREVAYQIGQILRSTRVKRGLGTIRQDLNISIRDGARVEVKGVQDLDLIPEIVEREVKRQLSLVEIRDTLQERGAVVEDKIFDVSEVFADTESRIISSAESVLAVKLRGFDGLIGVEIQPGRRLGTEMADYAKKRGVSGIFHTDELPAYGITEEEVRGLRDAVGASQGDAVVMVAHERVTAENALREVIRRAEMAIQGVPEETRKALPDGNTQYLRPLPTSSRMYLETDIPLFRIEDDLLEGIRRNLPELPSEKKERIMRDYGLSEDLASQLVKRNLVDEFEALTEFRVDTTVIASLLAYTLRELRREGHDVDGLGLDELRDAIKLLEVGKISKDALRDIVACMADEGLAAEDAARKLNLLLLAEDEIESIIQEIVEGNLDMISERGMGAMGPLMGQAMGRLRGRADGKVVNRILREKIQERL
On to B3, for which the “stoichiometry N” value in data set [4] was determined as 2.

For the origin of these results see paper PMC2943598 (Nucleic Acids Research, 2010).
